Measured values: patent US20250249118A1 (Eli Lilly, published 2025)

Key:
human TfR ECD = molecular target: T1, human TfR ECD (human, UniProt P02786 89-760); assay: SPR, Biacore 8K, 37 C, TfR ECD amine-coupled on CM4 chip, TBP as analyte, 2-state model; SEM 7.949 nM, n = 3
T1 construct: extracellular domain; also called human Transferrin Receptor 1 extracellular domain
Protocol: (§1) Target human and cynomologus TfR ECD's were immobilized on a CM4 chip (Cytiva P/N 29104989) using standard NHS-EDC amine coupling. The TfR binding proteins were prepared at a final concentration of 0.3, 0.1, 0.033, 0.01, 0.0033, 0.001, 0.00033, 0.0001 μM respectively by dilution of stock solution into running buffer.
(§2) Binding analysis was performed in a multi-cycle kinetics manner. Each analysis cycle consists of (1) injection of the lowest to highest concentration proteins over all Fc at 50 μL/min for 140 seconds followed by return to buffer flow for 400 seconds to monitor dissociation phase; (2) regeneration of chip surfaces with injection of 3M magnesium chloride, for 30 seconds at 100 μL/min over all cells; and (3) equilibration of chip surfaces with a 50 μL (30-sec) injection of HBS-EP+. Data were processed using standard double-referencing and fit to a 2-state binding model using Biacore 8K Evaluation software, to determine the association rate (kₒₙ, M⁻¹ s⁻¹ units), dissociation rate (koff, s⁻¹ units), and Rₘₐₓ (RU units). The equilibrium dissociation constant (KD) is calculated from the relationship KD=koff/kₒₙ, and is in molar units.

cynomolgus TfR ECD = molecular target: T2, cynomolgus TfR ECD (cynomolgus); assay: SPR, Biacore 8K, 37 C, TfR ECD amine-coupled on CM4 chip, TBP as analyte, 2-state model; SEM 2.565 nM, n = 3
T2 chain: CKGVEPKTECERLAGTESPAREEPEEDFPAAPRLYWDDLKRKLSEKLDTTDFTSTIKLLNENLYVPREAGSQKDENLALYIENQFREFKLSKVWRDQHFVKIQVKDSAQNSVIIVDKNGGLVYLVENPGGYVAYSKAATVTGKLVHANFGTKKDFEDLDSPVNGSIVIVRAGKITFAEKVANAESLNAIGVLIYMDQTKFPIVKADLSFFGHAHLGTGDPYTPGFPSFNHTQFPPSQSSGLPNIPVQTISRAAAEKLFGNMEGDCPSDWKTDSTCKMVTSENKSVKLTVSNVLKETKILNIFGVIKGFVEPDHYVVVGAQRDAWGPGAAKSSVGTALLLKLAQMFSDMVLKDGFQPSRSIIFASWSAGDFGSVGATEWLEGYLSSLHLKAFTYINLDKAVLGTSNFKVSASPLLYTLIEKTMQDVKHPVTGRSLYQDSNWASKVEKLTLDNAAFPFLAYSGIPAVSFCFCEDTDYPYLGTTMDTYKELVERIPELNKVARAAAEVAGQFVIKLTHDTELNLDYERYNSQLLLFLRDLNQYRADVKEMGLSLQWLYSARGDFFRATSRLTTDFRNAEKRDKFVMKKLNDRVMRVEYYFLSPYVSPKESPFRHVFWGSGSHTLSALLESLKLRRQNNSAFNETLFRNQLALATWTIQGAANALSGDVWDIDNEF
Protocol: as §1, §2

B1: TBP4 (One Arm Heteromab 1, A378C) (antibody)
heavy: EVQLVESGGGLVKPGGSLRLSCVASGFTFSSYSMNWVRQAPGKGLEWVSSISSSSSYIYYADSVKGRFTISRDNAKNSLYLQMNSLRAEDTAVYYCARRHGYSNSDAFDNWGQGTLVTVSSASTKGPSVFPLAPCSRSTSESTAALGCLVKDYFPEPVTVSWNSGALTSGVHTFPAVLQSSGLYSLSSVVTVPSSSLGTKTYTCNVDHKPSNTKVDKRVESKYGPPCPPCPAPEAAGGPSVFLFPPKPKDTLMISRTPEVTCVVVDVSQEDPEVQFNWYVDGVEVHNAKTKPREEQFNSTYRVVSVLTVLHQDWLNGKEYKCKVSNKGLPSSIEKTISKAKGQPREPQVSTLPPSQEEMTKNQVSLMCLVYGFYPSDICVEWESNGQPENNYKTTPPVLDSDGSFFLYSVLTVDKSRWQEGNVFSCSVMHEALHNHYTQKSLSLSLG
light: DIQMTQSPSAMSASVGDRVTITCRASQGISHYLVWFQQKPGKVPKRLIYAASSLQSGVPSRFSGSGSGTEFTLTISSLQPEDFATYYCLQHNSYPWTFGQGTKVEIKRTVAAPSVFIFPPSDEQLKSGTASVVCLLNNFYPREAKVQWKVDNALQSGNSQESVTEQDSKDSTYSLSSTLTLSKADYEKHKVYACEVTHQGLSSPVTKSFNRGEC
Fc: ESKYGPPCPPCPAPEAAGGPSVFLFPPKPKDTLMISRTPEVTCVVVDVSQEDPEVQFNWYVDGVEVHNAKTKPREEQFNSTYRVVSVLTVLHQDWLNGKEYKCKVSNKGLPSSIEKTISKAKGQPREPQVYTLPPSQGDMTKNQVQLTCLVKGFYPSDICVEWESNGQPENNYKTTPPVLDSDGSFFLASRLTVDKSRWQEGNVFSCSVMHEALHNHYTQKSLSLSLG
notes: One-arm heteromab: HC1 with LC1, plus an Fc-only HC2; IgG4 PAA; also called OAH1; copies: 1 + 1 + 1
Kd (human TfR ECD): 154 nM | Kd (cynomolgus TfR ECD): 300 nM
